Values of other authors as cited in article PMC2688729.

Target: thrombomodulin (Homo sapiens) (UniProt P07204)

In the case of thrombin (from UniProt P00734), the Kd is given as under 1 nM.
